Here are results for ten molecules from US20140348862.

Holding throughout (assay): competition, FACS 4C
What all share (conditions): modification not given

Experiment [1] deals with HLA-B*3501 (human), P01889.
Experiment [2] addresses HLA-B*3501 (human), P01889. The source holds these as a separate data set.
For the next experiment, the target named is HLA-B7 (human), P01889.
In experiment [3] the target is HLA-B*3501 (human), P01889. The source holds these as a separate data set.

One may read the IC50 as the concentration needed to halve the response being measured. Higher therefore signals lower potency. As to IPVEVLVDL [PRAME 173-181], in experiment [1], the IC50 turned out to be 2240 nM. Same read-out and setting: the value for QPFIPVEVL [PRAME 170-178] was 2830 nM. The same measure, in the same setting: in the case of FPPLFMAAF [PRAME 53-61] it was less than 1000 nM. With EPILCPCFM [PRAME 499-507], the IC50 was less than 1000 nM in experiment [2] and 320 nM in experiment [1]. The molecule LPRELFPPL [PRAME 48-56] registered an IC50 in experiment [1] of less than 1000 nM. Molecule SPYLGQMINL [PRAME 253-262] gave an IC50 in experiment [1] of 1980 nM.

In turn, LPRELFPPLF [PRAME 48-57] displayed an IC50 in experiment [1] of 1580 nM.

In the case of RPRRWKLQVL [PRAME 113-122], in the experiment with HLA-B7 (human), P01889, the IC50 is less than 1000 nM. With LPTLAKFSPY [PRAME 246-255], the IC50 was 110 nM in experiment [3] and less than 1000 nM in experiment [1].

For GACDELFSY [PRAME 186-194], in experiment [1], the IC50 is 2600 nM.
